Article PMC5609902 (2017)

B1: Y498 IgG1 (antibody, V domains shown)
VH: KVQLVQSGTELKKPGASGKVSCKASGYTFNSNGLNWVRQAPGQGLEWVGWISGHSDETKHAQNFQGRLTLTTDTSTNTAYMELRSLRSDDTAVYYCARSLLRSLERLMGGTDAFDIWGQGTLVTVSS
VL: not shown
B2: JRFL rgp120 (natural protein)
chain: not shown

Legend:
Assay in all cases: SPR
[1] = molecular target: CN54 rgp120 (HIV-1 CN54 (CRF07_BC))
[2] = molecular target: B2
[3] = molecular target: b12
[4] = molecular target: VRC01

Binder | koff [1] | koff [2] | Kd [3] | koff [3] | Kd [4] | koff [4]
B1 | 2.3e-05 s⁻¹ | 0.000105 s⁻¹ | – | – | – | –
B2 | – | – | 1.11 nM | 0.000567 s⁻¹ | 5.35 nM | 0.000167 s⁻¹
